Data reported in patent US12144869B2, “Anti-ROR1 antibody conjugates, compositions comprising anti ROR1 antibody conjugates, and methods of making and using anti-ROR1 antibody conjugates” (Sutro Biopharma, Inc., priority 2022, dated 2024).
Blank lines part the entries; values can stand above or below the molecule they belong to.

Assays:
TNBC PDX tumors = assay: TNBC PDX models, single agent or combination with olaparib; format: in vivo, athymic nude mice; conditions: CTG-0437, CTG-1017, and CTG-2055; single agent olaparib 50 mg/kg p.o. qd×28
Source text: The activity of Conjugate 46 as a single agent or in combination with the PARP inhibitor olaparib was additionally assessed in TNBC PDX models. Briefly, PDX tumors, spanning varying levels of ROR1 expression and sensitivity to olaparib, were passaged in athymic nude Fox1^nu mice before being processed into tumor fragments for subcutaneous implantation into the hind flank of mice for study initiation. When tumors reached a volume of around 150-300 mm^3, the mice were randomized and enrolled into the study. Tumor-bearing mice were administered up to three weekly doses (qw×3) of Conjugate 46 i.v. at 5 mg/kg and up to twenty-eight daily doses (qd×28) of olaparib p.o. at 50 mg/kg.
Combination treatment with Conjugate 46 and olaparib (50 mg/kg, qd×28) is conducted using a 2 mg/kg, qw×3 dosing regimen for Conjugate 46. The combination therapy is assessed in six TNBC PDX models as described in Example 26.

[1] = tested on: Immunoglobulin (Ig), Frizzled (Fz), and Kringle (Kr) domains of ROR1; assay: Epitope binning ELISA on ROR1 domains; format: binding; conditions: Table 6
Source text: Antibody binding was detected via HRP-conjugated anti-human Fc antibodies (Jackson Immunoresearch) and detection with SuperSignal ELISA Pico Chemiluminescent Substrate (Pierce).

[2] = target: T1, HCT116 cells overexpressing human ROR1 (HCT116-hRor1) (Homo sapiens, UniProt Q01973); assay: FACS cell binding on HCT116-hROR1; conditions: Table 11, SP34 light chain
T1 construct: expressed in transfected cells; host or cells: HCT116 (clone HCT116-hRor1-D02)
Source text: Ntera-2, MDA-MB-231, MCF7, HCT116 and Mino cells were obtained from ATCC. HCT116-hRor1-D02 clone was generated by transfecting HCT116 cells with a plasmid containing human Ror1 cDNA sequence and selected for highest stable expression of hRor1 on the cell surface. MDA-MB-231, MCF7, HCT116 and HCT116-Ror1 cell were maintained in Ham's F-12 high glucose DMEM (50-50) (Cellgro-Mediatech; Manassas, VA) supplemented with 10% heat-inactivated fetal bovine serum (Hyclone; Thermo Scientific; Waltham, MA), 1% Penicillin/Streptomycin (Cellgro-Mediatech; Manassas, VA) and 2 mmol/L-glutamax (Life Technology; Carlsbad, CA). Mino cells were maintained in RPMI-1640 medium (Cellgro-Mediatech; Manassas, VA) supplemented with 20% heat-inactivated fetal bovine serum (Hyclone; Thermo Scientific; Waltham, MA), 1% Penicillin/Streptomycin (Cellgro-Mediatech; Manassas, VA) and 2 mmol/L-glutamax (Life Technology; Carlsbad, CA).
Variants with expression levels>250 nM were tested in a fluorescence-activated cell sorting (FACS) cell-binding assay. […]
A mix of ROR1 positive and negative cells was prepared as follows. […] Cells were then washed 2× with FACS buffer and fixed for 10 minutes in 200 μl PBS with 2% PFA prior to fluorescence detection. […] Mean Fluorescence Intensity of ROR1 antibody binding was analyzed using FlowJo® software (Tree Star, Inc.).

[3] = Differential scanning fluorimetry (protein thermal shift; TM1/TM2); format: physicochemical; conditions: Table 11; melting temperature of the Fab domain
Method in brief: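 Protein at 0.2-2 mg/mL was mixed 1:1 with SYPRO Orange in PBS and heated to 95° C. at ~1.5° C. per minute while fluorescence was monitored, in quadruplicate. TM1 is Fc (CH2) unfolding and TM2 is Fab unfolding.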

human ROR1-Fz = target: T2, human ROR1-Fz (Homo sapiens, UniProt Q01973); assay: Biacore off-rate and kinetic analysis, ROR1-Fz; format: binding; conditions: Table 11; SP34 light chain
T2 construct: Frizzled (Fz, residues 165-305); His6 (C); purchased Acro Biosystems; host or cells: HEK293
Method in brief: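 Anti-ROR1 antibodies captured on anti-human Fc surface; recombinant hROR1 ECD or ROR1-Fz analyte flowed at 100, 50, 25, 6.25, 1.5625 nM plus 0 nM, 180 s association, 600 s dissociation, 25° C., HBS-EP+ buffer. KD from ratio of rate constants, 1:1 Langmuir fit.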

Molecule: O=C(c1cc(Cc2n[nH]c(=O)c3ccccc23)ccc1F)N1CCN(C(=O)C2CC2)CC1 [olaparib]
tumor growth suppression (TNBC PDX tumors): moderate tumor growth suppression

Domain binding by ELISA [1]: Fz
B1: SRP2196 (antibody, V domains shown)
VH: EVQLVESGGGLVQPGGSLRLSCAASGFNITGYYIHWVRQAPGKGLEWVGYISPNSGSTYYADSVKGRFTISADTSKNTAYLQMNSLRAEDTAVYYCARDSRRYVRPFDYWGQGTLVTVSS
VL: QAVVTQESALTTSPGETVTLTCRSSTGAVTTSNYANWVQEKPDHLFTGLIGGTNKRAPGVPARFSGSLIGDKAALTITGAQTEDEAIYFCALWYSNLWVFGGGTKLTVL
modifications: Synthetic: 1944-A07; VH; Synthetic: SP34 ; VL

HCT 116-hROR1 Binding Bmax (MFI) [2]: 15139 MFI
Kd ([2]; read-out: HCT 116-hROR1 Binding Kd): 0.3 nM
Biacore human ROR1-Fz ka (human ROR1-Fz): 185000 M⁻¹ s⁻¹
Biacore human ROR1-Fz kd (human ROR1-Fz): 0.000269 s⁻¹
Kd (human ROR1-Fz): 1.45 nM
B2: SRP2196-B07 (antibody, V domains shown)
VH: EVQLVESGGGLVQPGGSLRLSCAASGFNITGYHIHWVRQAPGEGLEWVGYISPNSGATYYADSVEGRFTISADTSKNTAYLQMHSLRAEDTAVYYCTRDSRRYVRGWDYWGQGTLVTVSS
VL: QAVVTQESALTTSPGETVTLTCRSSTGAVTTSNYANWVQEKPDHLFTGLIGGTNKRAPGVPARFSGSLIGDKAALTITGAQTEDEAIYFCALWYSNLWVFGGGTKLTVL
TM2 (° C.) [3]: 69 °C
